Article PMC11551953, “Probing Electrostatic and Hydrophobic Associative Interactions in Cells” (The Journal of Physical Chemistry. B, 2024)
Each block holds one molecule with its values, some of them ahead of it. Where no end group is shown, it is not given here.

What was measured:
[1] = target: GFP(EEE)4; assay: other fluorescence titration; probe (1 μM) with BSA titrated up to 100 mg/mL (2 mM) in a 96-well plate; ratio of excitation at 405 nm/488 nm, emission 520 nm; 10 mM NaPi, 100 mM KCl, pH 7.4; room temperature; fitted to a Hill function; KD of BSA (+92e) with GFP(EEE)4 called apparent
[2] = target: GFP(ESE)4; assay: as above
[3] = target: GFP(ESS)4; assay: as above
[4] = target: GFP(KLL)4; assay: as above
[5] = target: cationic and hydrophobic probes; assay: as above
[6] = target: T1, wtBSA(-17e), bovine serum albumin (bovine, UniProt P02769 25-607); assay: other fluorescence titration; BSA titrated to 1 uM probe (His-tag removed) in a 96-well plate; excitation ratio 405 nm/488 nm at 520 nm emission; 10 mM NaPi, 100 mM KCl, pH 7.4, room temperature; ratio against BSA concentration fitted to a Hill function (k = KD, n = Hill coefficient); errors are errors in the fits; conditions: both partners purified
T1 construct: bovine serum albumin, wild type; also called wtBSA (−18e); BSA(-18e); source: bought: Sigma-Aldrich; further purified by repeated concentration on an Amicon 10 kD cutoff filter
T1 sequence (P02769 25-607): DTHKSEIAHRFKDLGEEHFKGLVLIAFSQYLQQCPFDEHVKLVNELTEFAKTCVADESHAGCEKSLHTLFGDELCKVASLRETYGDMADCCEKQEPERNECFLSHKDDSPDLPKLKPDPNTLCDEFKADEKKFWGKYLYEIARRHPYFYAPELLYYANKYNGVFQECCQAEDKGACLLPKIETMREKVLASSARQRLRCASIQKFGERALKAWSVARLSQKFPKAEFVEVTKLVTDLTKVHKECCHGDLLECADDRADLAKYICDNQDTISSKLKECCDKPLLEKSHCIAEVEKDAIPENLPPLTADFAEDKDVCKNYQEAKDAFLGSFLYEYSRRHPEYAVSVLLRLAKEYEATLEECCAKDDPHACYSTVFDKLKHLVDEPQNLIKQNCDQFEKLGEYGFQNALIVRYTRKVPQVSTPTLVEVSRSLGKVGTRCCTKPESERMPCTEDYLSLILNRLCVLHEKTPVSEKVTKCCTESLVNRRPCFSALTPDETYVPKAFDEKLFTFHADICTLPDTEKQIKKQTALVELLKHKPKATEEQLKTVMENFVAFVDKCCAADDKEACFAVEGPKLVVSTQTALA

Chain of bovine serum albumin (BSA), wild type (P02769 25-607): as above

Molecule: bovine serum albumin (BSA), wild type (from UniProt P02769 25-607) (natural protein)
Kd [1]: > 1000 µM
Kd [2]: > 1000 µM
Kd [3]: > 1000 µM
Kd [4]: 100 to 200 µM
Kd [5]: 100 to 200 µM

Molecule: KLLKLLKLLKLL (other, also: fused to cpGFP reporter, not in chain) [GFP(KLL)4]
Kd [6]: 110 µM

Further lines, results first:

Kd [6]: 220 µM
Molecule: KLKKLKKLKKLK (other, also: fused to cpGFP reporter, not in chain) [GFP(KLK)4]

Kd [6]: 170 µM
Molecule: KKKKKKKKKKKK (other, also: fused to cpGFP reporter, not in chain) [GFP(KKK)4]
